Assay results: patent US20110318347A1

Tests used:
[1] = target: human CXCR4 (human); experiment: competition with [125I]-CXCL12 on HEK293T-CXCR4 membranes
[2] = target: human CXCR4 (human)
[3] = target: human CXCR4 (human); experiment: competition vs [125I]-238D2 (3 nM), membranes of HEK293T cells expressing CXCR4
[4] = target: human CXCR4 (human); experiment: competition with [125I]-238D4 on HEK293T-CXCR4 membranes
[5] = target: human CXCR4 (human); experiment: competition vs [125I]-238D4 (3 nM), membranes of HEK293T cells expressing CXCR4
[6] = target: human CXCR4 (human); experiment: cell-based or functional assay
[7] = target: human CXCR4 (human); experiment: periplasmic fraction (1:10), displacement of [125I]-CXCL12, HEK293T-CXCR4 membranes; - = 0-29%, + = 30-69%, ++ = 70-100%
[8] = target: human CXCR4 (human); experiment: competition with [125I]-238D2 on HEK293T-CXCR4 membranes
[9] = target: human CXCR4 (human); experiment: competition vs [125I]-CXCL12 (40 pM), membranes of HEK293T cells expressing CXCR4

Sequence of Nanobody 238D2 (VHH) (VHH): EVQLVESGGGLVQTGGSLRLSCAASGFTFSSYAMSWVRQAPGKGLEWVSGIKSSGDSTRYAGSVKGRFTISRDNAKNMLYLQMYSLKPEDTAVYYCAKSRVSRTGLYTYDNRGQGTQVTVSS

With Nanobody 238D2 (VHH) the IC50 (read off the curve) [1] was 20 nM, the IC50 (read off the curve), migration of Jurkat cells towards 0.3 nM CXCL12 [2] was 8 nM and the Displacem. (%) [3] was 97%. The pKi [3] was 8.41, the IC50 (read off the curve) [4] was 4 nM and the pKi [5] was 8.23. The Anti-HIV-1 activity (in nM), MT-4/HE [6] was 26.7 nM, the Anti-HIV-1 activity (in nM), MT-4/NL4.3 [6] was 30.7 nM and the Anti-HIV-1 activity (in nM), PBMC/HE [6] was 44.7 nM. The Anti-HIV-1 activity (in nM), PBMC/NL4.3 [6] was 30.9 nM, the Anti-HIV-1 activity (in nM), U87.CD4.CXCR4/NL4.3 [6] was 44.7 nM and the CRE activation, HEK293T-CXCR4-CREbgal/0.01-100 nM CXCL12, Imax (%) [6] was 104%. It also gave a Chemotaxis, Jurkat/0.3 nM CXCL12, Imax (%) [6] of 106%, an IC50, HIV-1 NL4.3, MT-4 cells, exp. 1 [6] of 0.701 µg/mL and an IC50, HIV-1 NL4.3, PBMC donor 1 [6] of 0.468 µg/mL. It also gave an IC50, HIV-1 NL4.3, PBMC donor 2 [6] of 0.307 µg/mL, an IC50, HIV-1 UG270, PBMC donor 1 [6] of 0.492 µg/mL and an IC50, HIV-1 UG270, PBMC donor 2 [6] of 0.447 µg/mL. For the same substance, the IC90, HIV-1 NL4.3, MT-4 cells, exp. 1 [6] was 0.849 µg/mL, the IC90, HIV-1 NL4.3, PBMC donor 1 [6] was greater than 1 µg/mL and the IC90, HIV-1 NL4.3, PBMC donor 2 [6] was greater than 1 µg/mL. For the same substance, the IC90, HIV-1 UG270, PBMC donor 1 [6] was greater than 1 µg/mL, the IC90, HIV-1 UG270, PBMC donor 2 [6] was 0.851 µg/mL and the IP accumulation, HEK293T-CXCR4-Gαqi5/30 nM CXCL12, Imax (%) [6] was 86%. It also gave a nM IC50, HIV-1 NL4.3, PBMC donor 1 [6] of 31.2 nM, a nM IC50, HIV-1 NL4.3, PBMC donor 2 [6] of 20.5 nM and a nM IC50, HIV-1 UG270, PBMC donor 1 [6] of 32.8 nM. It also gave a nM IC50, HIV-1 UG270, PBMC donor 2 [6] of 29.8 nM, a percent inhibition of specific [125I]-CXCL12 binding [7] of 70 to 100% and an IC50 (read off the curve) [8] of 6 nM. It also gave a Displacem. (%) [9] of 93% and a pKi [9] of 8.01.
Work on monoclonal antibody 12G5 yielded a Displacem. (%) [3] of 89%, a pKi [3] of 9.65 and a Displacem. (%) [5] of 90%. For the same substance, the pKi [5] was 9.31, the Displacem. (%) [9] was 54% and the pKi [9] was 9.19.
